Measured values reported in paper PMC7374565 (Nature Communications, 2020).

Experiments:
[1] = molecular target: intrinsically disordered domain of avian ANP32A (amino acids 149-281) (Gallus gallus); test: NMR titration; settings: both partners purified
[2] = molecular target: intrinsically disordered domain of human ANP32A (amino acids 144-249) (human, UniProt P39687 144-249); test: NMR titration; settings: both partners purified
intrinsically disordered domain of human ANP32A (amino acids 144-249), sequence (P39687 144-249): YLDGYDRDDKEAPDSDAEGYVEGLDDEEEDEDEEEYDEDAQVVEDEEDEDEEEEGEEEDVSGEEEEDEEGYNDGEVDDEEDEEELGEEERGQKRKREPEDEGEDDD

B1: 627 domain of PB2 (E627), amino acids 538-693 (domain or fragment)
chain: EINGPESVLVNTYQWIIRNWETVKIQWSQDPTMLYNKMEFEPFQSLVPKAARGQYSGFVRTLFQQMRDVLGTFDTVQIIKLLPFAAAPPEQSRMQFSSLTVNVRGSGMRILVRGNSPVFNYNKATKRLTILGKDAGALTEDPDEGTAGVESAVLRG
KD of the individual sites (tightest) [1]: ≥ 1700 µM
Kd [1]: > 600 µM
KD of the individual sites [2]: > 1400 µM
